{"source": "patent US5223421A", "about": "“Identification of methionine Nα-acetyltransferase” (The General Hospital Corporation, priority 1990, dated 1993)"}
{"target": "T1, yeast methionine acetyltransferase (M-N^α AT) (Saccharomyces cerevisiae, UniProt Q06504)", "T1 construct": "a crude yeast homogenate from the aaa1 mutant strain; endogenous in cells; host or cells: Saccharomyces cerevisiae strain T3A-a (aaa1), crude lysate", "T1 sequence (Q06504 1-195)": "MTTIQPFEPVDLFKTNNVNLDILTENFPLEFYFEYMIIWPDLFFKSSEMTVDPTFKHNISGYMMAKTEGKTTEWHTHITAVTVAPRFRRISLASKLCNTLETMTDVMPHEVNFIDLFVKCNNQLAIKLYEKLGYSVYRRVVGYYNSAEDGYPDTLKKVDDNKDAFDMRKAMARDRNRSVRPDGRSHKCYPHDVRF", "T1 sequence (Q12387 2-796 partner limits assumed)": "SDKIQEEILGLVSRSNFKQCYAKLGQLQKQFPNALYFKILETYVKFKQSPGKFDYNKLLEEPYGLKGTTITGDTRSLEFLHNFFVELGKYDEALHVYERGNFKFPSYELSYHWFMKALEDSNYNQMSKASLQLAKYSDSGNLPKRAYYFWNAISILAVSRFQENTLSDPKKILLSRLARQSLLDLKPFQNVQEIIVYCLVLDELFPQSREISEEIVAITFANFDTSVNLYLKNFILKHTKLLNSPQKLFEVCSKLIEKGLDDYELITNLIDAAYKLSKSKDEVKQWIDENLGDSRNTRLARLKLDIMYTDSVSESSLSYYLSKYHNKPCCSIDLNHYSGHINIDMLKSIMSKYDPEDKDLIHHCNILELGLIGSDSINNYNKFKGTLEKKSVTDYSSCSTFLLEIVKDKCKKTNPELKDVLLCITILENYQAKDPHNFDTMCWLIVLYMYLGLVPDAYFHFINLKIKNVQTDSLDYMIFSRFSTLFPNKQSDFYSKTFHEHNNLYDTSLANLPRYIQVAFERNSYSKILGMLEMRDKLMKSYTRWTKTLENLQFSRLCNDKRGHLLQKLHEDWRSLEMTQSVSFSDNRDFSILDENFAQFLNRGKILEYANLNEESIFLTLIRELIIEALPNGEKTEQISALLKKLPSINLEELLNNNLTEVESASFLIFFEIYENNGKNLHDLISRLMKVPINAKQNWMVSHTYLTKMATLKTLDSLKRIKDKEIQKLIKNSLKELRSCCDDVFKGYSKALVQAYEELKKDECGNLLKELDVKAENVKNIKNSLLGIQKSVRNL", "experiment": "Relative activity of yeast methionine acetyltransferase for N^α -acetylation of synthetic peptides (PAI analogues)", "assay_type": "biochemical", "design": "tested at 50 µM", "settings": "Table 5; mean ± SD (N=3-5); normalized to yeast proteinase A inhibitor 3", "method": "N^α -acetyltransferase activity was determined as previously described [Lee et al., J. Biol. Chem. 263:14948-14955 (1988)]. Aliquots of the lysate or chromatographic fractions were added to 1.5 ml Eppendorf tubes containing a reaction mixture of 50 mM HEPES, pH 7.4, 150 mM KCl, 1 mM DTT, 25 μM [^3 H] acetyl coenzyme A (0.5 μCi) and 50 μM synthetic peptide with an adjusted final volume of 100 μl. The assay mixture was incubated at 30° C. for 30 min. The reaction was stopped by adding 17 μl of 0.5M acetic acid and chilled in an ice bath. The reaction samples were filtered through SP membrane discs (Cuno) (previously pre-swollen in 0.5M acetic acid), and then washed three times with 1 ml of 0.5M acetic acid on a Millipore 1225 sampling manifold. The partially dried membranes were placed in scintillation cocktail and counted with a Beckman LS 3801 scintillation counter. One unit of activity was defined as the amount of enzyme able to transfer 1 pmol of [^3 H] acetyl group from [^3 H] acetyl coenzyme A to synthetic peptide per min under standard enzyme assay conditions defined above.\nProteinase A inhibitor 3 (PAI) (Tsunasawa et al., Methods Enzymol. 106:165-170 (1984); Wold, F., Trends Biochem Sci. 9:256-267 (1984); Driessen et al., CRC Crit. Rev. Biochem 18:281-325 (1985); Mullen et al., EMBO J. 8:2067-2075 (1989); Lee et al., J. Bacteriol. 171:5795-5802 (1989); Hershko et al., Proc. Natl. Acad. Sci. USA 81:7021-7025 (1984); Bachmair et al., Science 234:179-186 (1986); Arfin et al., Biochemistry 27:7979-7984 (1988); Persson et al., Eur. J. Biochem. 152:523-527 (1985); Huang al., Biochemistry 26:8242-8246 (1987); Lee et al., J. Biol. Chem. 263:14948-14955 (1988); Kamitani et al., J. Biol. Chem. 264:13188-13193 (1989)) is the only known yeast protein which is acetylated at its NH2 -terminal methionine residue (Biedermann et al., Carlsberg Res. Commun. 45:225-235 (1980)). […] The numbers in parentheses refer to the residue numbers, and the letters in parentheses refer to the amino acid sequence Abbreviations are as in FIG. 1. Data are reported as mean activity ±SD (N=3-5) and are normalized to the activity of the homogenate towards yeast proteinase A inhibitor 3. The sequence of this protein is:\nThus, by using PAI, its analogues and other peptides, the structural features of M-N^α AT substrates were studied. […] Only three of nineteen analogues were acetylated, although the efficiency of their acetylation varied from 9-55% (Asp>Glu>Gln). Although it was shown previously that iso-cytochrome c variant proteins (Met-Ile-Arg - - -, Met-Ile-Lys - - -, Met-Met-Asn - - -) can be N^α -acetylated in vivo (Tsunasawa et al., J. Biol. Chem. 260:5382-5391 (1985)), synthetic peptides mimicking the NH2 -terminal 24 amino acid residues of these iso-cytochrome c variants were not acetylated by the yeast M-N^αAT.", "units": {"Activity (%)": "%"}}
{"substance": "[Asp2 ]PROTEINASE A INHIBITOR 3 (1-24) (Yeast): synthetic PAI analogue with substitution at penultimate position (Asp) (MDTDQQKVSEIFQSSKEKLQGDAK; UniProt P01094 1-24, looked up, variant N2D)", "Activity (%)": "55 ± 5"}
{"substance": "[Gln2 ]PROTEINASE A INHIBITOR 3 (1-24) (Yeast): synthetic PAI analogue with substitution at penultimate position (Gln) (MQTDQQKVSEIFQSSKEKLQGDAK; UniProt P01094 1-24, looked up, variant N2Q)", "Activity (%)": "9 ± 3"}
{"substance": "[Gly2 ]PROTEINASE A INHIBITOR 3 (1-24) (Yeast): synthetic PAI analogue with substitution at penultimate position (Gly) (MGTDQQKVSEIFQSSKEKLQGDAK; UniProt P01094 1-24, looked up, variant N2G)", "Activity (%)": 0}
{"substance": "[His2 ]PROTEINASE A INHIBITOR 3 (1-24) (Yeast): synthetic PAI analogue with substitution at penultimate position (His) (MHTDQQKVSEIFQSSKEKLQGDAK; UniProt P01094 1-24, looked up, variant N2H)", "Activity (%)": 0}
{"substance": "[Ile2 ]PROTEINASE A INHIBITOR 3 (1-24) (Yeast): synthetic PAI analogue with substitution at penultimate position (Ile) (MITDQQKVSEIFQSSKEKLQGDAK; UniProt P01094 1-24, looked up, variant N2I)", "Activity (%)": 0}
{"substance": "[Met2 ]PROTEINASE A INHIBITOR 3 (1-24) (Yeast): synthetic PAI analogue with substitution at penultimate position (Met) (MMTDQQKVSEIFQSSKEKLQGDAK; UniProt P01094 1-24, looked up, variant N2M)", "Activity (%)": 0}
{"substance": "[Phe2 ]PROTEINASE A INHIBITOR 3 (1-24) (Yeast): synthetic PAI analogue with substitution at penultimate position (Phe) (MFTDQQKVSEIFQSSKEKLQGDAK; UniProt P01094 1-24, looked up, variant N2F)", "Activity (%)": 0}
{"substance": "[Pro2 ]PROTEINASE A INHIBITOR 3 (1-24) (Yeast): synthetic PAI analogue with substitution at penultimate position (Pro) (MPTDQQKVSEIFQSSKEKLQGDAK; UniProt P01094 1-24, looked up, variant N2P)", "Activity (%)": 0}
{"substance": "[Trp2 ]PROTEINASE A INHIBITOR 3 (1-24) (Yeast): synthetic PAI analogue with substitution at penultimate position (Trp) (MWTDQQKVSEIFQSSKEKLQGDAK; UniProt P01094 1-24, looked up, variant N2W)", "Activity (%)": 0}
{"substance": "[Val2 ]PROTEINASE A INHIBITOR 3 (1-24) (Yeast): synthetic PAI analogue with substitution at penultimate position (Val) (MVTDQQKVSEIFQSSKEKLQGDAK; UniProt P01094 1-24, looked up, variant N2V)", "Activity (%)": 0}
